{
  "source": "patent US20080170994A1",
  "about": "(ARMAGEN TECHNOLOGIES, published 2008)",
  "key": {"[1]": {"target": "BBB insulin receptor of the Rhesus monkey (Rhesus monkey, UniProt Q28516 1-210)", "experiment": "cell-based or functional assay"}, "[2]": {"target": "T1, human insulin receptor (HIR) extracellular domain (ECD) (human, UniProt P06213 28-956, limits assumed)", "T1 construct": "extracellular domain; Solid phase antigen of the HIR ELISA; also called HIR ECD; purified human insulin receptor", "experiment": "ELISA on affinity purified HIR ECD", "description": "The affinity of the fusion antibody for binding to the human insulin receptor (HIR) extracellular domain (ECD) was measured with an ELISA using affinity purified HIR ECD obtained from medium conditioned by CHO cells permanently transfected with the HIR ECD gene. […] The 50% saturation of binding, ED₅₀, is 0.53±0.02 nM for the chimeric HIRMAb. The ED₅₀ of fusion antibody binding to the HIR is 1.0±0.1 nM (FIG. 35). […] The HIR at the BBB is an heterotetrameric molecule comprised of two alpha and two beta chains. […] There is specific binding of the [¹²⁵I]-fusion antibody to human brain capillaries in a time-dependent process, whereas binding of the [¹²⁵I]-mouse anti-Aβ antibody is constant with time, and is non-specific (FIG. 36B)."}, "Aβ^1-40 amyloid peptide [3]": {"target": "T2, Aβ^1-40 amyloid peptide (human, UniProt P05067 672-711)", "T2 construct": "domain: Aβ^1-40; Plated on 96-well plates in the ELISA and the IRMA; also called Aβ^1-40 peptide; 40 amino acid Aβ amyloid peptide of AD", "experiment": "IRMA: competition with [125I]-murine anti-Aβ MAb on plated Aβ^1-40", "description": "(§1) FIG. 34. Aβ¹⁻⁴⁰ immunoradiometric assay (IRMA) measures the binding of the [¹²⁵I]-murine anti-Aβ MAb to Aβ¹⁻⁴⁰ that is plated in wells of a 96-well plate. The murine anti-Aβ MAb is the original murine MAb against Aβ purified from hybridoma conditioned medium. In the absence of competitors of binding, approximately 20% of the total [¹²⁵I]-anti-Aβ MAb is bound to the Aβ¹⁻⁴⁰. […] The affinity of the fusion antibody for Aβ¹⁻⁴⁰ is equal to the affinity of the original murine anti-Aβ¹⁻⁴⁰ MAb\n(§2) The affinity of the fusion antibody for binding to Aβ¹⁻⁴⁰ was compared to the same affinity of the murine hybridoma generated anti-Aβ MAb with an immunoradiometric assay (IMRA). In this assay, the Aβ¹⁻⁴⁰ is plated in 96-well plates, and the binding of [¹²⁵I]-murine anti-Aβ MAb to the […] is measured. […] Therefore, the affinity of the fusion antibody for Aβ¹⁻⁴⁰ is identical to that of the original 150 kDa hetero-tetrameric murine anti-Aβ MAb. This was a surprising finding, since the affinity of a ScFv for the target antigen is generally much lower than for the full, tetrameric MAb molecule. Owing to the bivalency of the tetrameric MAb, the affinity for the antigen is higher than the affinity of the monomeric ScFv. The high affinity of the ScFv moiety of the fusion antibody for Aβ¹⁻⁴⁰ is attributed to the design of the fusion antibody molecule, which places the ScFv in a dimeric or bivalent conformation (FIG. 26)."}, "Aβ^1-40 amyloid peptide [4]": {"target": "T2, Aβ^1-40 amyloid peptide", "experiment": "IRMA on plated Aβ^1-40"}, "Aβ^1-40 amyloid peptide [5]": {"target": "T2, Aβ^1-40 amyloid peptide", "experiment": "IRMA: [125I]-murine anti-Aβ MAb on plated Aβ^1-40, unlabelled antibody as competitor", "description": "as §1\nas §2, with “The high affinity of the ScFv moiety of the fusion antibody for Aβ¹⁻⁴⁰ is attributed to the design of the fusion antibody molecule, which places the ScFv in a dimeric or bivalent conformation (FIG. 26).” left out"}},
  "data": [
    {"binder": "anti-Aβ ScFv/chimeric HIRMAb fusion antibody (bispecific antibody, human IgG1, kappa, also called fusion protein; HIRMAb-mAβScFv) heavy: not shown light: DIQMTQSPSSLSASLGERVSLTCRASQDIGGNLYWLQQGPDGTIKRLIYATSSLDSGVPKRFSGSRSGSDYSLTISSLESEDFVDYYCLQYSSSPWTFGGGTKMEIKRTVAAPSVFIFPPSDEQLKSGTASVVCLLNNFYPREAKVQWKVDNALQSGNSQESVTEQDSKDSTYSLSSTLTLSKADYEKHKVYACEVTHQGLSSPVTKSFNRGEC", "values": [
      {"measurement": "brain volume of distribution (VD) in Rhesus monkey at 3 hours after intravenous injection", "setting": "[1]", "result": "> 10", "unit": "fold"},
      {"measurement": "EC50", "setting": "[2]", "result": 1, "unit": "nM"},
      {"measurement": "Kd", "setting": "Aβ^1-40 amyloid peptide [3]", "result": 24, "unit": "nM"}
    ]},
    {"binder": "Ala-497 form of the antibody fusion protein (N497A) (bispecific antibody, human IgG1, kappa, also called fusion antibody with the N497A mutation) heavy: not shown light: DIQMTQSPSSLSASLGERVSLTCRASQDIGGNLYWLQQGPDGTIKRLIYATSSLDSGVPKRFSGSRSGSDYSLTISSLESEDFVDYYCLQYSSSPWTFGGGTKMEIKRTVAAPSVFIFPPSDEQLKSGTASVVCLLNNFYPREAKVQWKVDNALQSGNSQESVTEQDSKDSTYSLSSTLTLSKADYEKHKVYACEVTHQGLSSPVTKSFNRGEC", "values": [
      {"measurement": "fold decrease of affinity against the Asn-497 fusion antibody", "setting": "Aβ^1-40 amyloid peptide [4]", "result": "~6", "unit": "fold"},
      {"measurement": "Ki", "setting": "Aβ^1-40 amyloid peptide [3]", "result": 182, "unit": "nM"}
    ]},
    {"binder": "Ala-499 form of the antibody fusion protein (S499A) (bispecific antibody, human IgG1, kappa, also called fusion antibody with the S499A mutation) heavy: not shown light: DIQMTQSPSSLSASLGERVSLTCRASQDIGGNLYWLQQGPDGTIKRLIYATSSLDSGVPKRFSGSRSGSDYSLTISSLESEDFVDYYCLQYSSSPWTFGGGTKMEIKRTVAAPSVFIFPPSDEQLKSGTASVVCLLNNFYPREAKVQWKVDNALQSGNSQESVTEQDSKDSTYSLSSTLTLSKADYEKHKVYACEVTHQGLSSPVTKSFNRGEC", "values": [
      {"measurement": "fold decrease of affinity against the Ser-499 fusion antibody", "setting": "Aβ^1-40 amyloid peptide [4]", "result": 8, "unit": "fold"},
      {"measurement": "Ki", "setting": "Aβ^1-40 amyloid peptide [3]", "result": 271, "unit": "nM"}
    ]},
    {"binder": "murine anti-Aβ MAb (hybridoma generated) (antibody, V domains shown, 150 kDa hetero-tetrameric mouse IgG (gamma heavy chain, kappa light chain) purified from hybridoma medium; also called mouse anti-Aβ MAb; mouse anti-Aβ antibody) VH: QVQLQQSGAELVKPGATVKLSCKASGYSFNSHYIYWVKQRPGQGLEWIGEINPSNGAMNFNEKFKNKATLTVDKSSSTAYMQLSSLTSEDSAVYYCVRDPTSYWGQGTLVTVSA VL: DVVMTQTPLSLPVSLGDQASISCRSSQSLVHSYGNTYLHWYLQKPGQSPKLLIYKVSNRFSGVPDRFSGSGSGTDFTLKISRVEAEDLGVYFCSQSTHVPYTFGGGTKLEIKR", "values": [
      {"measurement": "Kd", "setting": "Aβ^1-40 amyloid peptide [5]", "result": 32, "unit": "nM"}
    ]},
    {"binder": "chimeric HIRMAb (chimeric monoclonal antibody to the human insulin receptor) (antibody, human IgG1, kappa, V domains shown) VH: QVQLQQSGPELVKPGALVKISCKASGYTFTNYDIHWVKQRPGQGLEWIGWIYPGDGSTKYNEKFKGKATLTADKSSSTAYMHLSSLTSEKSAVYFCAREWAYWGQGTLVTVSA VL: DIQMTQSPSSLSASLGERVSLTCRASQDIGGNLYWLQQGPDGTIKRLIYATSSLDSGVPKRFSGSRSGSDYSLTISSLESEDFVDYYCLQYSSSPWTFGGGTKMEIKR", "values": [
      {"measurement": "EC50", "setting": "[2]", "result": 0.53, "unit": "nM"}
    ]}
  ]
}
